According to paper PMC8305194, “Structural, Mechanistic, and Functional Insights into an Arthrobacter nicotinovorans Molybdenum Hydroxylase Involved in Nicotine Degradation” (Molecules, 2021):

B1: Kdh holoenzyme (KdhL, KdhM, KdhS); 6-hydroxypseudooxynicotine 2-oxidoreductase; ketone dehydrogenase (Paenarthrobacter nicotinovorans) (protein)
chain: MMAKAKALIPDNGRAGADEGNRQAWIGQEVLRREDRRLLTGTATFAGDLGVPGQLHMRIVRSTQAHARIVSIDATEAEKTPGVRMVITSEHTRHLGSVLLEELGYHEIYENIEDFSHPVLAVDKVLYVGQPVVAVLAVDPYLAEDAAELVSIEYEPLPVLLDPEEALTGKVELFPGRGNEGARIKKAYGDIDRAFAEAEHVIRHKYVTNRHSGVPMEPRAVVVQPDPARDTLFIWGTVHVHDNRRIIAKMLNLPEVNVRMKHVEIGGSFGVKGGVFPENVVAAWAARTLGVPIKWTEDRVEHMTSTSHAREMVHKLELALDAEGRILGMKDEIFHNHGAYFRQAEPLVSDITAGIVFGPYRVPAYDATLHAVFTNKTPVGAYRAPGRYESTFARERIFDLACAEIGLSKTEFRRRNLLTAEDLPWTPGLDIVHEPYHFDSGDVVKHFNEALEAANFSEWLEESKRLRADGRKVGVGLGVLMDKAGLGLFETGGVEVSRAGRVTVKTGGSSVGQGIETVLAQIVAEELQIAPENIDIVHSDTELIPDGVGSWSSRSTVLAGGAARKAALAVVEKARRLASEMLEADPDDLELTAGSFKVKGTDQQISLYEIAAARDPFTARADNDEPGLAADAVYMNNAMNYPYGVTLVQIELDPDTGGHRILRFSTSTEAGRVINPLTTRGQIIGAAVQGIGGALYEEFLYEEDGQPITTSFMDYLLPSAQEMPNVDCFVTEDAKSPDNPFGAKGLGEIGIIAAGAAIASAIDDAIADGVHTDRLPVTPEQIFSRCQGLNKAER
notes: kdhLMS co-expressed from pART2-kdhLMS in A. nicotinovorans pAO1; Ni-NTA (tag not described) and Superdex 200; KdhL 87 kDa, KdhM 287 residues, KdhS 160 residues; heterotrimer, dimer of heterotrimers in crystal; with 6-hydroxypseudooxynicotine dehydrogenase complex subunit alpha; 6-hydroxypseudooxynicotine dehydrogenase complex subunit beta
B2: Kdh holoenzyme (KdhL, KdhM, KdhS); 6-hydroxypseudooxynicotine 2-oxidoreductase; ketone dehydrogenase (Paenarthrobacter nicotinovorans; F269A) (protein)
chain: MMAKAKALIPDNGRAGADEGNRQAWIGQEVLRREDRRLLTGTATFAGDLGVPGQLHMRIVRSTQAHARIVSIDATEAEKTPGVRMVITSEHTRHLGSVLLEELGYHEIYENIEDFSHPVLAVDKVLYVGQPVVAVLAVDPYLAEDAAELVSIEYEPLPVLLDPEEALTGKVELFPGRGNEGARIKKAYGDIDRAFAEAEHVIRHKYVTNRHSGVPMEPRAVVVQPDPARDTLFIWGTVHVHDNRRIIAKMLNLPEVNVRMKHVEIGGSAGVKGGVFPENVVAAWAARTLGVPIKWTEDRVEHMTSTSHAREMVHKLELALDAEGRILGMKDEIFHNHGAYFRQAEPLVSDITAGIVFGPYRVPAYDATLHAVFTNKTPVGAYRAPGRYESTFARERIFDLACAEIGLSKTEFRRRNLLTAEDLPWTPGLDIVHEPYHFDSGDVVKHFNEALEAANFSEWLEESKRLRADGRKVGVGLGVLMDKAGLGLFETGGVEVSRAGRVTVKTGGSSVGQGIETVLAQIVAEELQIAPENIDIVHSDTELIPDGVGSWSSRSTVLAGGAARKAALAVVEKARRLASEMLEADPDDLELTAGSFKVKGTDQQISLYEIAAARDPFTARADNDEPGLAADAVYMNNAMNYPYGVTLVQIELDPDTGGHRILRFSTSTEAGRVINPLTTRGQIIGAAVQGIGGALYEEFLYEEDGQPITTSFMDYLLPSAQEMPNVDCFVTEDAKSPDNPFGAKGLGEIGIIAAGAAIASAIDDAIADGVHTDRLPVTPEQIFSRCQGLNKAER
notes: as for B1
B3: Kdh holoenzyme (KdhL, KdhM, KdhS); 6-hydroxypseudooxynicotine 2-oxidoreductase; ketone dehydrogenase (Paenarthrobacter nicotinovorans; R383A) (protein)
chain: MMAKAKALIPDNGRAGADEGNRQAWIGQEVLRREDRRLLTGTATFAGDLGVPGQLHMRIVRSTQAHARIVSIDATEAEKTPGVRMVITSEHTRHLGSVLLEELGYHEIYENIEDFSHPVLAVDKVLYVGQPVVAVLAVDPYLAEDAAELVSIEYEPLPVLLDPEEALTGKVELFPGRGNEGARIKKAYGDIDRAFAEAEHVIRHKYVTNRHSGVPMEPRAVVVQPDPARDTLFIWGTVHVHDNRRIIAKMLNLPEVNVRMKHVEIGGSFGVKGGVFPENVVAAWAARTLGVPIKWTEDRVEHMTSTSHAREMVHKLELALDAEGRILGMKDEIFHNHGAYFRQAEPLVSDITAGIVFGPYRVPAYDATLHAVFTNKTPVGAYAAPGRYESTFARERIFDLACAEIGLSKTEFRRRNLLTAEDLPWTPGLDIVHEPYHFDSGDVVKHFNEALEAANFSEWLEESKRLRADGRKVGVGLGVLMDKAGLGLFETGGVEVSRAGRVTVKTGGSSVGQGIETVLAQIVAEELQIAPENIDIVHSDTELIPDGVGSWSSRSTVLAGGAARKAALAVVEKARRLASEMLEADPDDLELTAGSFKVKGTDQQISLYEIAAARDPFTARADNDEPGLAADAVYMNNAMNYPYGVTLVQIELDPDTGGHRILRFSTSTEAGRVINPLTTRGQIIGAAVQGIGGALYEEFLYEEDGQPITTSFMDYLLPSAQEMPNVDCFVTEDAKSPDNPFGAKGLGEIGIIAAGAAIASAIDDAIADGVHTDRLPVTPEQIFSRCQGLNKAER
notes: as for B1

Substrate: CNCCCC(=O)c1ccc(O)nc1
Experiment: purified protein
Type: biochemical, Paenarthrobacter nicotinovorans
Conditions: 500 μM PMS, 50 μM DCIP, aerobic, 30 °C
[1] = pH 8.0, Tris-HCl per Table 2 (Table 3 lists the same value under PBS pH 8.0)

| Protein | Km [1] | kcat [1] | kcat/Km [1] | Km (Tris-HCl pH 8.0) | kcat (Tris-HCl pH 8.0) | kcat/Km (Tris-HCl pH 8.0) |
| --- | --- | --- | --- | --- | --- | --- |
| B1 | 12.5 ± 0.9 µM | 9.03 ± 0.12 s⁻¹ | 720000 ± 130000 M⁻¹ s⁻¹ |  |  |  |
| B2 |  |  |  | 25.98 ± 2.73 µM | 2.3 ± 0.07 s⁻¹ | 90000 ± 30000 M⁻¹ s⁻¹ |
| B3 |  |  |  | 21.4 ± 2.3 µM | 6.32 ± 0.16 s⁻¹ | 300000 ± 70000 M⁻¹ s⁻¹ |
